What all share (test): cell-based or functional assay
In test [1] the target is human α6/α3β2β3 nAChR (human), P17787.
The target in test [2] is human α7 nAChR (human), P36544.
The target of test [3] is rat NMDA receptor NR1-2b/NR2A (rat), P35439.
For test [4], the target named is rat NMDA receptor NR1-2b/NR2B (rat), P35439.
Test [5] addresses rat NMDA receptor NR1-2b/NR2C (rat), P35439.
The target in test [6] is rat NMDA receptor NR1-2b/NR2D (rat), P35439.
The target of test [7] is rat α2β2 nAChR (rat), P12389.
The target in test [8] is rat α2β4 nAChR (rat), P12389.
In test [9] the target is rat α3β2 nAChR (rat), P04757.
Test [10] addresses rat α3β4 nAChR (rat), P04757.
The target in test [11] is rat α4β2 nAChR (rat), P09483.
For test [12], the target named is rat α4β4 nAChR (rat), P09483.
Test [13] concerns the target rat α6/α3β2β3 nAChR (rat), P12390.
In test [14] the target is rat α6/α3β4 nAChR (rat), P12392.
Test [15] addresses rat α7 nAChR (rat), Q05941.

Sequence of rat α7 nAChR (rat), Q05941 (Q05941 23-502): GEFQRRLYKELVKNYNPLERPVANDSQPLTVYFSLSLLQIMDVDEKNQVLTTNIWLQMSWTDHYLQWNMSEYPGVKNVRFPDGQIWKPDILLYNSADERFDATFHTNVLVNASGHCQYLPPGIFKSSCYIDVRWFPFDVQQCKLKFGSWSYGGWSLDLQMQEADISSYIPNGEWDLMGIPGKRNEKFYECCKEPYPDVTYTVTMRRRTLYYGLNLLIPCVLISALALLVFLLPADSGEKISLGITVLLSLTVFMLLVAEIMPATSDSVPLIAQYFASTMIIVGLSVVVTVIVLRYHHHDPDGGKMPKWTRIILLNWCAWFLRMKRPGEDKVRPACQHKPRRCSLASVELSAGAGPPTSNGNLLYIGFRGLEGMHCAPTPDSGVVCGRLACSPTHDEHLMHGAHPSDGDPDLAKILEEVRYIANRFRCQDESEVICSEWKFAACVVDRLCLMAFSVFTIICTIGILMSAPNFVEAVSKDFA
Sequence of human α7 nAChR (human), P36544 (P36544 23-502): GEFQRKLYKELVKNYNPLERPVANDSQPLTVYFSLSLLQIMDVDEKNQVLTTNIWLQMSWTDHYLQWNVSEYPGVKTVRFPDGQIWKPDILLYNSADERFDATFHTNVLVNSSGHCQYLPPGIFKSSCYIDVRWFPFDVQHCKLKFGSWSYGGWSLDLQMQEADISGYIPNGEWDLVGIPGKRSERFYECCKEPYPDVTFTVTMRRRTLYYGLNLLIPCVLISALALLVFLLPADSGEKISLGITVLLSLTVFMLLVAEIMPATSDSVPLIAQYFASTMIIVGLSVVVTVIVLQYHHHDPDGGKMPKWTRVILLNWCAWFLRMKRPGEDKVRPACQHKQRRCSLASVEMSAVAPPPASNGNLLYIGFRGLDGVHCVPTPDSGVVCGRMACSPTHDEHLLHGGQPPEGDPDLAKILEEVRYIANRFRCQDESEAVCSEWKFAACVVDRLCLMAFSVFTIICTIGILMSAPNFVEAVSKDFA
Sequence of rat α2β2 nAChR (rat), P12389 (P12389 28-511, chain 1 of 2): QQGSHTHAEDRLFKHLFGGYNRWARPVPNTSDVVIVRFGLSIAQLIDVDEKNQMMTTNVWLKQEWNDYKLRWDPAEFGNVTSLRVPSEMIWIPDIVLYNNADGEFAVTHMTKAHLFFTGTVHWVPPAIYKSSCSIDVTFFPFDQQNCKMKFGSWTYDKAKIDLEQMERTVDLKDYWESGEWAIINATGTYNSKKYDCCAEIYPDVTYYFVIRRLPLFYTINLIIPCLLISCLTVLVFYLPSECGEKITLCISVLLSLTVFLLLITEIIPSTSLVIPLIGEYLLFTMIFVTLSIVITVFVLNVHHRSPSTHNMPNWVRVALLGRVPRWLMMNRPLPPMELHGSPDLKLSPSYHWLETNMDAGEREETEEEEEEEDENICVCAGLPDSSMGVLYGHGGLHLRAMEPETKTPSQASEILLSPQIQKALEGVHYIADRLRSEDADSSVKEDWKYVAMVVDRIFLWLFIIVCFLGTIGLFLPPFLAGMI
Sequence of rat α2β2 nAChR (rat), P12389 (P12390 25-500, chain 2 of 2, further chain): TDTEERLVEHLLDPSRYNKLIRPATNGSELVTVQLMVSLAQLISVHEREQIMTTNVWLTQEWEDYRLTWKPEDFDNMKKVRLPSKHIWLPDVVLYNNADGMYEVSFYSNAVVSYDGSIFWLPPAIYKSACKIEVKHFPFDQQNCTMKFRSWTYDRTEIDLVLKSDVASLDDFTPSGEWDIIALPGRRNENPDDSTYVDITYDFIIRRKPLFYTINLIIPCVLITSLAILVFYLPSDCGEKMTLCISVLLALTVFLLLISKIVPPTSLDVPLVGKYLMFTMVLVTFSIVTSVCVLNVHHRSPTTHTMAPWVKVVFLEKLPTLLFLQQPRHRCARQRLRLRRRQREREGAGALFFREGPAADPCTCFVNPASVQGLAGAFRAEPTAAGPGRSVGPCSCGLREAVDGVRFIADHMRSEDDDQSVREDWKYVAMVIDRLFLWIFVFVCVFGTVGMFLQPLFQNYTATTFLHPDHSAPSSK
Sequence of rat α2β4 nAChR (rat), P12389 (P12389 28-511, chain 1 of 2): as the sequence (P12389 28-511, chain 1 of 2) above
Sequence of rat α2β4 nAChR (rat), P12389 (P12392 21-495, chain 2 of 2, further chain): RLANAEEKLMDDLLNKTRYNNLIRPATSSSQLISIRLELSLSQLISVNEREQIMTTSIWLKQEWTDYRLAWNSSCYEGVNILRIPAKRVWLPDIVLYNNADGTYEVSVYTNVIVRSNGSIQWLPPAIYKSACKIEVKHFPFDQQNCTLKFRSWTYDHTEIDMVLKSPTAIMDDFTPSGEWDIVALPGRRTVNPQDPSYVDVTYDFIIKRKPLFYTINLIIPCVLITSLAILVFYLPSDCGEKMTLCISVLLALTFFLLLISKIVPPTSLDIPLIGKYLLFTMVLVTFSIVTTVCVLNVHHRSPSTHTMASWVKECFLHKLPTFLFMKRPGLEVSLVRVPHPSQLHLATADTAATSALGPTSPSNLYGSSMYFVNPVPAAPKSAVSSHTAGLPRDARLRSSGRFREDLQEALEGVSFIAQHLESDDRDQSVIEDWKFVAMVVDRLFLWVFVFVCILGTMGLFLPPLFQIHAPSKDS
Sequence of human α6/α3β2β3 nAChR (human), P17787 (P17787 26-502, chain 1 of 2): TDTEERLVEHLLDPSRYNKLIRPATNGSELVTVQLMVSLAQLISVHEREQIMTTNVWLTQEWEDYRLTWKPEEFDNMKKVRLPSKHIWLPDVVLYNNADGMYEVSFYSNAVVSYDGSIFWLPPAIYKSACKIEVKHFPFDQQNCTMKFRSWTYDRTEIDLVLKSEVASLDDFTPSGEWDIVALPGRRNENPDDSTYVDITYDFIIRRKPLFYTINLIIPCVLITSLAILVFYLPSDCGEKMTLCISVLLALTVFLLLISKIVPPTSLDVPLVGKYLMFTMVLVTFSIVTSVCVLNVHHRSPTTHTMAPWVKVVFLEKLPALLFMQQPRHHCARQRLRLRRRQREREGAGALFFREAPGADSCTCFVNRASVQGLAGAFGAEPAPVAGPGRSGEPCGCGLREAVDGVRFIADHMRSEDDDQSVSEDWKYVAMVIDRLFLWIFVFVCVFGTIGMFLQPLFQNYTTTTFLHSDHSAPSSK
Sequence of human α6/α3β2β3 nAChR (human), P17787 (Q05901 22-458, chain 2 of 2, further chain): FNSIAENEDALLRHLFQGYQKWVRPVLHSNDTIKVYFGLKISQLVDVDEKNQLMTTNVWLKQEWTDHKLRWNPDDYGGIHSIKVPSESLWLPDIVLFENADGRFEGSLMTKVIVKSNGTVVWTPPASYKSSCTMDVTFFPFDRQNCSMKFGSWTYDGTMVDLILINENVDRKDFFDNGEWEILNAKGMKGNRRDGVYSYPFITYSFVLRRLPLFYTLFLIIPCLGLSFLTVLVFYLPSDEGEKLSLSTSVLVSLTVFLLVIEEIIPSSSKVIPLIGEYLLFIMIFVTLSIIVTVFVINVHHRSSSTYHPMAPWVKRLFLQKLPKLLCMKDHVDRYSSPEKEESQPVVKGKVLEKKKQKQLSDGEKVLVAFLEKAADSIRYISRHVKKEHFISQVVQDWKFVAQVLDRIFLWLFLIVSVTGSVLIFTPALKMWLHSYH
Sequence of rat α4β4 nAChR (rat), P09483 (P09483 31-630, chain 1 of 2): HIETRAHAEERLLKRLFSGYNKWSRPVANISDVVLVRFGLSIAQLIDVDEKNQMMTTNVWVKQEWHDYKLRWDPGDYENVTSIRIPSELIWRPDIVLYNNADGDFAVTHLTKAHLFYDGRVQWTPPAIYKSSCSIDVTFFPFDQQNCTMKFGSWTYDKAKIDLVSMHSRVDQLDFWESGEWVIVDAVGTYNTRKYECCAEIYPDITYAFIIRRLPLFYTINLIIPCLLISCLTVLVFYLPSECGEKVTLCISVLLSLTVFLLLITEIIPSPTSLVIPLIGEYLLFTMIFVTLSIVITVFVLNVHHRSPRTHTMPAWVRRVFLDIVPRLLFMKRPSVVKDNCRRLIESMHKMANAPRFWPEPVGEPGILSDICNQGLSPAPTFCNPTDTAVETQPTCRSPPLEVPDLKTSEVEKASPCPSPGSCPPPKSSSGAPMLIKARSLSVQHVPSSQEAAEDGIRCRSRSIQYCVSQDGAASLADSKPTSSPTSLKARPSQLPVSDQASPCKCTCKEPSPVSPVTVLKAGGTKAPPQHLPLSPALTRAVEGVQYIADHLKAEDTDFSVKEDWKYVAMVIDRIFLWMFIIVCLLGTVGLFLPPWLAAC
Sequence of rat α4β4 nAChR (rat), P09483 (P12392 21-495, chain 2 of 2, further chain): as the sequence (P12392 21-495, chain 2 of 2, further chain) above

As for TCRSSGRYCRSPYDRRRRYCRRITDACV (modifications not checked) [αO-conotoxin GeXIVA12 (GeXIVA mature peptide isomer with disulfide bonds I-II, III-IV)], the Half-blocking dose IC50, ACh-gated current, oocyte voltage clamp worked out at 505 nM in test [1]; 555 nM in test [2]; 338 nM in test [7]; 2090 nM in test [8]; 412 nM in [9]; 5400 nM in test [10]. Also, the Half-blocking dose IC50, ACh-gated current, oocyte voltage clamp in test [11] came out at 979 nM; in test [12], 2390 nM; in [13], 258 nM; in test [14], 806 nM; in test [15], 415 nM. Moreover, the Half-blocking dose IC50, NMDA receptor current, oocyte voltage clamp in [3] is 3700 nM; in test [4], 4000 nM; in test [5] it was 655 nM; in test [6] it was 5200 nM.

(Values after patent US20150158921A1.)
